Assay results: US6812377B2, “Genetic engineering of syringyl-enriched lignin in plants” (Board of Control of Michigan Technological University, priority 2000, dated 2004)
Blank lines part the entries; values can stand above or below the molecule they belong to.

Legend:
[1] = target: recombinant PtSAD protein (Populus tremuloides, UniProt Q94G59); test: Kinetic properties of the recombinant PtSAD protein (HPLC-UV/MS); type: biochemical; settings: substrate of PtSAD; relative, sinapaldehyde = 100
Experimental: (§1) To characterize the enzyme pH optima, the substrate and recombinant PtCAD or PtSAD protein concentrations described above were used in sodium phosphate buffers, pH 5 to 8.5. […] For inhibition kinetics, the PtCAD-mediated reduction of sinapaldehyde (1 to 200 μM) was assayed in the presence of 1 to 5 μM coniferaldehyde, and the PtSAD-catalyzed reduction of coniferaldehyde (1 to 200 μM) was assayed in the presence of 1 to 5 μM sinapaldehyde. All reactions were terminated by the addition of 10 μL of 6 N HCI (to bring the pH to 2) and 500 ng of internal standard o-coumaric acid and analyzed by HPLC-UV/MS. An aliquot of 100 μL of reaction mixture was injected directly onto a Supelcosil LC-ABZ column (15 cm×4.6 mm×5 μm; Supelco, Bellefonte, Pa.) with automatic sample injection and separated isocratically with a Hewlett-Packard (HP) 1100 liquid chromatography system at 40° C. and a flow rate of 0.25 mL/min. […] The reaction products were identified and confirmed by comparing the ion fragmentation patterns of the product and the authentic standard in MS scanning mode at 70 V. The product quantity and Km, Vmax, kcat, and apparent inhibition constant (Ki) values (means±SE) were determined as described (Osakabe et al., 1999; Li et al., 2000). The results of the inhibition kinetics for both the CAD enzyme (i.e. Table 2) and the SAD enzyme (i.e., Table 3) using a variety of substrates are illustrated below.

[2] = target: T1, recombinant PtCAD protein (Populus tremuloides, UniProt Q9M632); test: Kinetic properties of the recombinant PtCAD protein (HPLC-UV/MS); type: biochemical; settings: substrate of PtCAD; relative, coniferaldehyde = 100
Experimental: as §1

[3] = target: T1, recombinant PtCAD protein; test: PtCAD enzyme activity with a mixture of coniferaldehyde and sinapaldehyde (HPLC-MS); type: biochemical
Text: A guaiacyl pathway gene encoding coniferyl alcohol dehydrogenase (CAD, FIG. 1) from Populus tremuloides (GenBank #AF217957) was first cloned. This cDNA was designated as PtCAD (GenBank #AF217957). E. coli-expressed recombinant PtCAD protein was characterized for its catalytic activity with coniferaldehyde and sinapaldehyde. Because monolignol biosynthetic pathway intermediates are present together in lignifying tissues (Osakabe et al., 1999; Li et al. 2000), the PtCAD enzyme activity with a mixture of coniferaldehyde and sinapaldehyde was assayed. As shown in FIG. 5 (a) and (c), the reaction mixture was separated by HPLC after the enzyme reaction. […]
An aliquot of 100 μL of reaction mixture was injected directly onto a Supelcosil LC-ABZ column (15 cm×4.6 mm×5 μm; Supelco, Bellefonte, Pa.) with automatic sample injection and separated isocratically with a Hewlett-Packard (HP) 1100 liquid chromatography system at 40° C. and a flow rate of 0.25 mL/min. […] The reaction products were identified and confirmed by comparing the ion fragmentation patterns of the product and the authentic standard in MS scanning mode at 70 V. The product quantity and Km, Vmax, kcat, and apparent inhibition constant (Ki) values (means±SE) were determined as described (Osakabe et al., 1999; Li et al., 2000). […]

[4] = test system: PtSAD recombinant protein; test: SAD enzyme activity assay, single and mixed substrates (HPLC-MS); type: biochemical, Populus tremuloides
Experimental: After 10 min at 30° C., the reaction was terminated and extracted with 0.5 ml ethyl acetate. The extraction was repeated 4 times and the combined ethyl acetate was evaporated and dissolved in the HPLC mobile phase for LC-MS identification and quantitation of the reaction products as we did before (Osakabe et al., 1999; Li et al. 2000). […] The SAD reactions with mixed substrates, sinapaldehyde and coniferyl aldehyde, were therefore conducted at the optimal pH 7.0 under above-described conditions. […] To characterize the enzyme pH optima, the substrate and recombinant PtCAD or PtSAD protein concentrations described above were used in sodium phosphate buffers, pH 5 to 8.5. All reactions were for 10 minutes at 30° C. An aliquot of 100 μL of reaction mixture was injected directly onto a Supelcosil LC-ABZ column (15 cm×4.6 mm×5 μm; Supelco, Bellefonte, Pa.) with automatic sample injection and separated isocratically with a Hewlett-Packard (HP) 1100 liquid chromatography system at 40° C. and a flow rate of 0.25 mL/min. […] The reaction products were identified and confirmed by comparing the ion fragmentation patterns of the product and the authentic standard in MS scanning mode at 70 V. The product quantity and Km, Vmax, kcat, and apparent inhibition constant (Ki) values (means±SE) were determined as described (Osakabe et al., 1999; Li et al., 2000). The results of the inhibition kinetics for both the CAD enzyme (i.e. Table 2) and the SAD enzyme (i.e., Table 3) using a variety of substrates are illustrated below.

[5] = substrate: COc1cc(/C=C/C=O)cc(OC)c1O; test: Kinetic properties of the recombinant PtCAD protein (HPLC-UV/MS); type: biochemical, Populus tremuloides; settings: other: substrate of PtCAD, pH 8.0, 4 min, 30° C., NADPH, means of three independent assays
Experimental: as §1

[6] = substrate: COc1cc(/C=C/C=O)ccc1O; test: as above; type: biochemical, Populus tremuloides; settings: other: substrate of PtCAD, pH 8.0, 4 min, 30° C., NADPH, means of three independent assays
Experimental: as §1

[7] = substrate: O=C/C=C/c1ccc(O)cc1; test: as above; type: biochemical, Populus tremuloides; settings: other: substrate of PtCAD, pH 8.0, 4 min, 30° C., NADPH, means of three independent assays
Experimental: as §1

[8] = substrate: O=C/C=C/c1ccc(O)c(O)c1; test: as above; type: biochemical, Populus tremuloides; settings: other: substrate of PtCAD, pH 8.0, 4 min, 30° C., NADPH, means of three independent assays
Experimental: as §1

[9] = substrate: COc1cc(/C=C/C=O)cc(O)c1O; test: as above; type: biochemical, Populus tremuloides; settings: other: substrate of PtCAD, pH 8.0, 4 min, 30° C., NADPH, means of three independent assays
Experimental: as §1

[10] = substrate: COc1cc(/C=C/C=O)cc(OC)c1O; test: Kinetic properties of the recombinant PtSAD protein (HPLC-UV/MS); type: biochemical, Populus tremuloides; settings: other: substrate of PtSAD, pH 7.0, 4 min, 30° C., NADPH, means of three independent assays
[11] = substrate: COc1cc(/C=C/C=O)ccc1O; test: as above; type: biochemical, Populus tremuloides; settings: other: substrate of PtSAD, pH 7.0, 4 min, 30° C., NADPH, means of three independent assays
[12] = substrate: O=C/C=C/c1ccc(O)cc1; test: as above; type: biochemical, Populus tremuloides; settings: other: substrate of PtSAD, pH 7.0, 4 min, 30° C., NADPH, means of three independent assays
[13] = substrate: O=C/C=C/c1ccc(O)c(O)c1; test: as above; type: biochemical, Populus tremuloides; settings: other: substrate of PtSAD, pH 7.0, 4 min, 30° C., NADPH, means of three independent assays
[14] = substrate: COc1cc(/C=C/C=O)cc(O)c1O; test: as above; type: biochemical, Populus tremuloides; settings: other: substrate of PtSAD, pH 7.0, 4 min, 30° C., NADPH, means of three independent assays

Molecule: COc1cc(/C=C/C=O)cc(O)c1O [5-Hydroxyconiferaldehyde]
- Vmax/Km [1]: 15.5%
- Vmax/Km [2]: 10.6%

Molecule: O=C/C=C/c1ccc(O)cc1 [p-Coumaraldehyde]
- Vmax/Km [1]: 27.4%
- Vmax/Km [2]: 30.1%

B1: recombinant PtCAD protein (Populus tremuloides) (protein)
chain: MGSLETERKIVGWAATDSTGHLAPYTYSLRDTGPEDVLIKVISCGICHTDIHQIKNDLGMSHYPMVPGHEVVGEVVEVGSDVTKFKAGDVVGVGVIVGSCKNCHPCKSELEQYCNKKIWSYNDVYTDGKPTQGGFAESMVVDQKFVVRIPDGMSPEQAAPLLCAGLTVYSPLKHFGLKQSGLRGGILGLGGVGHMGVKIAKAMGHHVTVISSSDKKREEAMEHLGADEYLVSSDVESMQKAADQLDYIIDTVPVVHPLEPYLSLLKLDGKLILMGVINTPLQFVSPMVMLGRKSITGSFIGSMKETEEMLEFCKEKGLASMIEVIKMDYINTAFERLEKNDVRYRFVVDVAGSKLIP
- Km [5]: 9.1 µM
- Vmax [5]: 0.1 µmol/min/mg
- kcat [5]: 0.0667 s⁻¹
- Km [6]: 2.3 µM
- Vmax [6]: 0.21 µmol/min/mg
- kcat [6]: 0.14 s⁻¹
- Km [7]: 6.2 µM
- Vmax [7]: 0.17 µmol/min/mg
- kcat [7]: 0.113 s⁻¹
- Km [8]: 37.0 µM
- Vmax [8]: 0.15 µmol/min/mg
- kcat [8]: 0.1 s⁻¹
- Km [9]: 17.5 µM
- Vmax [9]: 0.17 µmol/min/mg
- kcat [9]: 0.113 s⁻¹

B2: recombinant PtSAD protein (Populus tremuloides) (protein)
chain: MSKSPEEEHPVKAFGWAARDQSGHLSPFNFSRRATGEEDVRFKVLYCGICHSDLHSIKNDWGFSMYPLVPGHEIVGEVTEVGSKVKKVNVGDKVGVGCLVGACHSCESCANDLENYCPKMILTYASIYHDGTITYGGYSDHMVANERYIIRFPDNMPLDGGAPLLCAGITVYSPLKYFGLDEPGKHIGIVGLGGLGHVAVKFAKAFGSKVTVISTSPSKKEEALKNFGADSFLVSRDQEQMQAAAGTLDGIIDTVSAVHPLLPLFGLLKSHGKLILVGAPEKPLELPAFSLIAGRKIVAGSGIGGMKETQEMIDFAAKHNITADIEVISTDYLNTAIERLAKNDVRYRFVIDVGNTLAATKP
- Km [10]: 7.4 µM
- Vmax [10]: 5 µmol/min/mg
- kcat [10]: 3.33 s⁻¹
- Km [11]: 12.7 µM
- Vmax [11]: 2.3 µmol/min/mg
- kcat [11]: 1.53 s⁻¹
- Km [12]: 15.6 µM
- Vmax [12]: 2.9 µmol/min/mg
- kcat [12]: 1.93 s⁻¹
- Km [13]: 140.0 µM
- Vmax [13]: 2 µmol/min/mg
- kcat [13]: 1.33 s⁻¹
- Km [14]: 36.1 µM
- Vmax [14]: 3.8 µmol/min/mg
- kcat [14]: 2.53 s⁻¹

Other lines, results leading:

- Vmax/Km [1]: 2.2%
- Vmax/Km [2]: 4.4%
Molecule: O=C/C=C/c1ccc(O)c(O)c1 [Caffealdehyde]

- Vmax/Km [1]: 100%
- Vmax/Km [2]: 12.0%
- reaction of PtCAD with the substrate in a mixture [3]: no reaction
- reaction of PtSAD with the substrate in a mixture ([4]; mixture of coniferaldehyde and sinapaldehyde, pH 7.0): sinapyl alcohol is the exclusive product
- catalytic efficiency of PtSAD with sinapaldehyde versus coniferaldehyde ([4]; ratio of specific activities): 9 times
Molecule: COc1cc(/C=C/C=O)cc(OC)c1O [Sinapaldehyde]
